# Laboratory results reported in the DeepSol protein solubility set.
# Experiment: soluble on expression in E. coli; label from the status in PepcDB or PDB records
row,Sequence,soluble on expression in E. coli
1,MNDAVITLNGLEKRFPGMDKPAVAPLDCTIHAGYVTGLVGPDGAGKTTLMRMLAGLLKPDSGSATVIGFDPIKNDGALHAVLGYMPQKFGLYEDLTVMENLNLYADLRSVTGEARKQTFARLLEFTSLGPFTGRLAGKLSGGMKQKLGLACTLVGEPKVLLLDEPGVGVDPISRRELWQMVHELAGEGMLILWSTSYLDEAEQCRDVLLMNEGELLYQGEPKALTQTMAGRSFLMTSPHEGNRKLLQRALKLPQVSDGMIQGKSVRLILKKEATPDDIRHADGMPEININETTPRFEDAFIDLLGGAGTSESPLGAILHTVEGTPGETVIEAKELTKKFGDFAATDHVNFAVKRGEIFGLLGPNGAGKSTTFKMMCGLLVPTSGQALVLGMDLKESSGKARQHLGYMAQKFSLYGNLTVEQNLRFFSGVYGLRGRAQNEKISRMSEAFGLKSIASHATDELPLGFKQRLALACSLMHEPDILFLDEPTSGVDPLTRREFWLHINSMVEKGVTVMVTTHFMDEAEYCDRIGLVYRGKLIASGTPDDLKAQSANDEQPDPTMEQAFIQLIHDWDKEHSNE,soluble
2,MAHHHHHHMDAKQRESIEELKEQLRGLEEALLIQEKVMQQRNQVILSLSSSIADAENSIGESKEGLKKAEESLEEAIRSNTIAHTERLVLQEEATKYSERDEYLNELSEADAGLNAAEAQVKDLVIQINDLSREPQNKNALQRVTLVRLISMLNDLHASLKHSVQCVPHEEDNRAREVLKAIRELSRERERTFGHCLRKKREIMGVMELKKQRTDEILLESKKNVALLRDIHEKTTLDAVEKIQKERNLLQEELENIKRANQLLQDTLGSTECLCDTKGSDSASTPASISMNVASCQSTDVQKEREHLREYLRHLEEKVTQLRSTTDELRESVGSQMEKNTLKLKDLRHQVRSKQNETHRLENENRKLKSLCDSLASTLGPK,not soluble
3,MGSDKIHHHHHHMPLTRERTDMSNLLSISDLSITFDNGPRVVDGLSFSIDKGQTLALVGESGSGKSVSALSILRLLDERHAAYPAGHILYKGEDLLQAQEKRLRQIRGRHISMIFQEPMTSLNPLHTVEKQISETLELHKGMRGPQARKRCLELLELVGIPAPETRLKSYPHQLSGGQKQRVMIAMALANEPDLLIADEPTTALDVTVQKQVLELLKSLQQKLGMAVLLITHDLSIVRRYADYVVVMERGKMVEQGATETLFRSPSHTYTRKLIDAEPPEHPLPAANGTETLMTVDNVNVHFPIRKTMLGKVKESFHAVQDASFELRAGETLGIVGESGSGKTTLGHALLKLTPSTGTFSLCGTELSALSQKAFRPWRRRVQIVFQDPFGSLSPRMSVEEIIREGLEIHEPGSSGQHEARVIQALKDVGLDPDARHRYPHEFSGGQRQRIAIARALVLQPDLMILDEPTSALDRTVQKQVIELLREIQARYRLSYIFISHDLAVVRALSHKLLVLRQGRIVEYGDAETIFREPQQPYTRELLNAAFFYQSTTN,not soluble
4,MSLGSTQLQLHGLLSNISSKEGTYAKLGGLYTQSLARLVAKCEDLFMGGQKKELHFNENNWSLFKLTCNKPCCDSGDAIYYCATCSEDPGSTYAVKICKAPEPKTVSYCSPSVPVHFNIQQDCGHFVASVPSSMLSSPDAPKDPVPALPTHPPAQEQDCVVVITREVPHQTASDFVRDSAASHQAEPEAYERRVCFLLLQLCNGLEHLKEHGIIHRDLCLENLLLVHCTLQAGPREKQLPRLIISNFLKAKQKPGGTPNLQQKKSQARLAPEIVSASQYRKFDEFQTGILIYELLHQPNPFEVRAQLRERDYRQEDLPPLPALSLYSPGLQQLAHLLLEADPIKRIRIGEAKRVLQCLLWGPRRELVQQPGTSEEALCGTLHNWIDMKRALMMMKFAEKAVDRRRGVELEDWLCCQYLASAEPGALLQSLKLLQEGHHHHHH,soluble
5,MAHHHHHHMHPPSSGQGLFPRYGGGWMHQFGHVYALQQELLDPNANNWFRAVELWHTARQEGVAMNVSHFTSILRQCVQPGAWAQSLQVLKQMKRENVRPDVVGVGCALAACVEGKHYDEVENIFATFHKTMLLDSVCHLALIRARQESGNAKGAIAAGKQQQADQVPFLPYTYTHLLEACNAEDDAAYAMELVRNMHSEQWVPSQCAMLAIEDLGRRHERLAAFSRPLLSASDKADSALPSFDASRRLLPPEW,not soluble
6,MSDETFMREAIALARANVEAGGRPFGAVLVRDGRVLARGVNQIHETHDPSAHAELQAIRQASQALGSPRLDGCVIYASGHPCPMCLAAMHLCGIQAAWFAYSNEDGEAFGLSTATLYAEMARPPQRQSLPLRALRPAGEEGLYRQWRQRQA,not soluble
7,MGSDKIHHHHHHMRKLKIGITCYPSVGGSGIIATELGKQLAEKGHEIHFITSSIPFRLNTYHPNIHFHEVEVNQYAVFKYPPYDLTLASKIAEVAERENLDIIHAHYALPHAVCAYLAKQMLKRNIGIVTTLHGTDITVLGYDPSLKDLIRFAIESSDRVTAVSSALAAETYDLIKPEKKIETIYNFIDERVYLKKNTAAIKEKHGILPDEKVVIHVSNFRKVKRVQDVIRVFRNIAGKTKAKLLLVGDGPEKSTACELIRKYGLEDQVLMLGNQDRVEDLYSISDLKLLLSEKESFGLVLLEAMACGVPCIGTNIGGIPEVIKNNVSGFLVDVGDVTAATARAMSILEDEQLSNRFTKAAIEMLENEFSSKKIVSQYEQIYADLAEPE,not soluble
8,MKITGVKAVFYSATGNTEEVVTAIAEKIAEKLGVSMEICNFTLPGGRTEVQTYAPSELVVFGTPVYAGRVPNKMLPVVQNNFKGEGALAVPVVTFGNRNFDNGLIELRNELENNGFHTIAGAGFAVSHVFSDKIAPGRPDEADREIMMRFAEAVAEKVEKMEEIPAPIEVRGEDPVGPYYTPLGTDGKPAVFLKAKPK,not soluble
9,MGSDKIHHHHHHMIARKLADLGVDVIEAGFPASSEGEFIATRKIFEEIGDQVEVIGLSRSNKNDIDKTISTGISSIHLFIATSELHMKYKLKMTKEEVLNKIYESVKYAKDHGMIVEFSPEDATRTEEDFLFTAIRTAIEAGADRINIPDTVGTMHPFKYYDMIKKIVNFVGERIIVSVHCHNDFGLATANSLAGVYAGARQAHVTVNGIGERAGNASLEEVVMGIKKLLNYETNVKTWKLYEVSRFVAEMTGVPVPYFKAIVGDNAFGHESGIHVHGVIENPFTYEPISPEEVGNFRRLALGKHSGIHGLRKLLEEQGIYLSDDKLKIVLAEIKKLAESGNKVTVEDAKNIALKLMNS,not soluble
10,MGSDKIHHHHHHMKCFFESEEFEKAVEKIDRLYEKVDSIEEAEIAFLREKKPFQGVAVVKEETYTIYKTGEKLVELEDPEKAASIAYILAGEKLLSGGWVRRMVSGLLQAMIVLMEIEDENGWSHSQRVARLAERVGKKLGLSEEKLSLLREYAMLHDVGKIGIEQLMLYTPTRIRIFEQYPQDHTIMGSVFLASLEVLWDVVPIVRHHHENWDGTGYPDGLKGEEIPLEARIISVCDYYDVLTNFVSSEWEGRTKTHEEALEIIKKEAGKKFDPKVVEAFLEIFSDEAVE,not soluble
11,MSLEAILPVPEEKQVDWQKMETYAFVHFGLNTFNDREWGYGDSEPKTFNPTKLDCEQWVKTFVESGMKGVILTAKHHDGFCLWPTQLTEYCIRNTPYKDGKGDIVGELAAACKKYGIKFAVYLSPWDRHQANYGTPEYVDYFHKQLTELMTNYGEVFEVWFDGANGGDGWYGGAKDSRTIDRKTYYNYPRIYEILDKLQPQAIVFSDGGPGCRWVGNENGFAGATNWSFLRAGEVYPGYPKYRELQYGHADGNQWVPAECDVSIRPGWFYHPEEDDRVKTVEQLTDLYYRSVGHNATLLLNFPVDRDGLIHPIDSANAVNFHKNVQKQLAHNLLAGIRPKASDERGGQFSAKAATDESWDTYWATNDGVTAADIEFDFPKTEKVNRMMIQEYIPLGQRVKSFIVEYDKDGKWLPVKLNEETTTVGYKRLLRFETVSTDKLRIRFTDARACLCINNIEAYYAGETADTFTVEAKELKSYPFTLVGVPEEETKKCMDKDKNTTAFVEGDALVIDLGEERTITSFHYLPDQSEYNKGLISSYELSVGTEANAVNRIVAQGEFSNIKNNPILQSVYFTPVKARYLSLKPTKMVTEGETMGFAEIGIQEGHHHHHH,soluble
12,MKKRILAVAVTSMLLSASVFAQETVVPSRVGDLKFESDFPTQETMKNMLNEMDFQRATQAYLWGIPASSIMEWLNVSRNDFKFEEGQMGFFNTLKQKQGIITANFTTPYVIGTWNLEKTGPLIINLPEAKMAGMMLDVHQRVLSDLSLLGPDKGKGGKYLIVPPGEKYKDLNPKGYYVIRPKTNVVYGGIRILEPDVDRVVKQVVPNITTQPYADGKLGRKIPVAQVPEIDWTHIPKDGLEYWKTIHQIIQENPVEERDRFVMAQLKFLGIEKGKPFNPTEEQKKILLEASKVGRAMAQSNDYTKRFTQPYWKGTNWKDAISVSLDQRSENYDELDERAAWFYEAITVSRGMKSTIPGFGQRYLVTYQDSDGNWLSGEHTYKLHVPANVPASNFWSTTVYDENNRLMIINDAGSPDISSRKNLKVNSDGSIDVYYGPKPVKGYENNWVQTNPGEGWFTYFRFYGPTEKMFDKSWTMGDIELVKLEHHHHHH,soluble
13,MALTSVSVYELSRLGPPQQPVRRRSNSTKVRRKDAELGSVDRKRNPKRNQIQPQHNESITITYMGRPRSPSVDLPTSPPIPSVIRQRRSSSTVAKKLPQSASNPSFLRKQGSSSSLSNGLWTDCIEVVNEIGVMAKMESRKIRRLRMAVYRRVRISDDEEMVLTASRALSKCHGWTLDTCHDYLPVIIDNIISMDTSNRIIAAEGLAAIADSLGERLVKFAGMNSHRIGVDIAAEERSEKAKACIQLLRSVVRKRDWYYRHLDVESIDRLDATMERLKSI,not soluble
14,MARSDSDKNGNGGNLGFEAELFKAADKLRGNMEPSDYKHVALGLIFLKYISDAFEAKHKALLAEDALAAEDKDEYLADNVFWVPKEARWSHLQANAKQPTIGTLIDDAMRAIEKDNASLKGVLPKDYARPALNKVMLGELIDLISGIGHLLPSPSGRGAGGEGQSFDILGRVYEYFLGQFAGAEGKRGGEFYTPRSVVRVLVEMLEPYSGRVYDPCCGSGGMFVQSEKFVQEHGGRIGDIAIYGQESNYTAWRLAKMNLAVRGIDADIRWNNEGSFHKDELRDLKADYILANPPFNISDWGGDRLREDVRWQFGVPPVGNANYAWLQHIYWHLAPNGTAGVVLANGSMSSNQSGEGEIRRAMLEADAVDCMVALPGQLFYSTQIPACLWFLARNKNPANGKTGGLRDRRGHVLFIDARKMGVLVDRTRRELSDEEIQKIARTYHAWRGEPDAGDYADVAGFCKSATLDEIRKHGHVLTPGRYVGAAEVEDDGEPFEEKMARLAAQWRQQRDEAAKLDAAIEANLKELGFWE,soluble
15,MGSDKIHHHHHHAQETLRENNGEPTLVERLSNGEIKINSAEMNFQLFTSANAEFVGNELDGMNFKLNRVRLEIKGDVGKWLGYHYRQSFNKYSDPYSLDNLSSSLELAYVNLKARPNLNFTIGKQFVNFGGYEYYVNSIRVREFSEFNNLLTAYQAGISGNWQVSPDHELCFQIVNNRNGNDEDIYPTGLPEGTAKAKIPFMYTVNWNSYYLDKSLQLRYATAVGQQTRKRYSYYFTCGNTYEKGPLLTYLDVMYTRQGIDQHGVVSRLPGTPHTAMNTEYLSIIGDVDYRVHPQWNVYVKGAYETARVYKGNGDFRKGMYRRSWNAQSSVEFFPFKQLDLFVFVLYTYRGVILEKAATRMGAIEPDTHRISLGLVYSIPVF,not soluble
16,MSTFSFIIVNNEQVRIHDIQGKSHMSPYNGKKVNNVEGVVTALDKNGFYIEDNQPDNDPATSEGMYVYKKDANVAVGDLIQVDGVVEEYVGPGYAERFETDLTTTEIKASRVVVIAKDQSLPAPIVLGENGVKIPDQIIDNDAFGLFDPNEDAIDFYESIEGMRVTMPTPKVIAPQKNGNLYVTVKNGGDKIVTQYGTPLLDENQLNPERLSVKVPRDYVAKVGDTFTGDITGVVGYDYGSFRISPITELPAVVDGGFKQVGANIQPRLDKLTVATYNIENFSANKKETTDEKVKALAYSIKYNLKMPDIIGVEEMQDNNGSINDLEHHHHHH,not soluble
